# In article PMC6987189, “Native aggregation is a common feature among triosephosphate isomerases of different species” (Scientific Reports, 2020):
# Test system: O=C[C@H](O)COP(=O)(O)O
# Experiment: purified protein
# Type: biochemical, Giardia duodenalis
# Conditions: GAP to DHAP direction, 25 °C, 100 mM TEA, 10 mM EDTA, 0.2 mM NADH, GAP 0.3 to 3 mM
substance,measurement,value
GlTIM (Giardia duodenalis; C202A),Km,100 ± 10 µM
same,kcat,3280 ± 103 s⁻¹
same,kcat/Km,2.9e+07 M⁻¹ s⁻¹
